The values below come from the Immune Epitope Database (IEDB).

The target in assay [1] is HLA-A*01:01. Kind of assay: IEDB peptide-MHC binding, purified MHC/competitive/fluorescence; ≥ and ≤ were set here for values at or beyond the usual limits of such assays. As to conditions: source organism: Zaire ebolavirus.
For assay [2], the target named is HLA-A*24:02. The description is as above. Conditions: source organism: Zaire ebolavirus.
The target in assay [3] is HLA-B*15:01. Described as above. Conditions: source organism: Zaire ebolavirus.
Assay [4] has as its target HLA-A*02:01. The assay is described as above. As to conditions: source organism: Zaire ebolavirus.
A further assay has as its target HLA-B*08:01. Kind of assay: IEDB peptide-MHC binding, purified MHC/direct/fluorescence; filed as Kd, often an IC50 or EC50 that approximates it; ≥ and ≤ were set here for values at or beyond the usual limits of such assays.
In another assay the target is HLA-B*08:02. Described as above.
For assay [5], the target named is HLA-A*01:01. The assay is described as above. Conditions: source organism: Influenza A virus (A/Duck/Shantou/2134/00(H9N2)).
The next assay addresses HLA-A*11:01. The assay is described as above. Conditions: source organism: Influenza A virus (A/Duck/Shantou/2134/00(H9N2)).
For assay [6], the target named is HLA-A*24:02. Described as above. As to conditions: source organism: Influenza A virus (A/Duck/Shantou/2134/00(H9N2)).
In assay [7] the target is HLA-A*69:01. The assay is described as above. Conditions: source organism: Influenza A virus (A/Duck/Shantou/2134/00(H9N2)).
In assay [8] the target is HLA-B*15:01. The description is as above. Conditions: source organism: Influenza A virus (A/Puerto Rico/8/34/Mount Sinai(H1N1)).
Another assay deals with HLA-B*58:01. Described as above. As to conditions: source organism: Influenza A virus (A/Duck/Shantou/2134/00(H9N2)).
The target of assay [9] is HLA-A*26:01. The description is as above. As to conditions: source organism: Influenza A virus (A/Taiwan/2/2006(H1N1)).
Assay [10] has as its target HLA-A*02:01. The assay is described as above. Conditions: source organism: Influenza A virus (A/Duck/Shantou/2134/00(H9N2)).
A further assay addresses HLA-A*03:01. The assay is described as above. Conditions: source organism: Influenza A virus (A/Duck/Shantou/2134/00(H9N2)).
For another assay, the target named is HLA-B*07:02. Described as above. Conditions: source organism: Influenza A virus (A/Duck/Shantou/2134/00(H9N2)).
The target of the next assay is HLA-B*27:05. The description is as above. Conditions: source organism: Influenza A virus (A/Duck/Shantou/2134/00(H9N2)).
Assay [11] addresses HLA-B*40:01. The description is as above. Conditions: source organism: Influenza A virus (A/Duck/Shantou/2134/00(H9N2)).
The target of another assay is HLA-B*44:02. Described as above. Conditions: source organism: Influenza A virus (A/Duck/Shantou/2134/00(H9N2)).
The target in a further assay is HLA-B*45:06. Kind of assay: IEDB peptide-MHC binding, purified MHC/competitive/fluorescence; filed as Kd, often an IC50 or EC50 that approximates it; ≥ and ≤ were set here for values at or beyond the usual limits of such assays. As to conditions: source organism: Yersinia pestis Nepal516.
The target in assay [12] is HLA-B*15:01. Described as above.
For the next assay, the target named is HLA-C*04:01. The description is as above. Conditions: source organism: Yersinia pestis Nepal516.
The target in a further assay is HLA-B*83:01. The description is as above. Conditions: source organism: Yersinia pestis Nepal516.
The target of assay [13] is HLA-B*40:01. The description is as above. Conditions: source organism: Yersinia pestis Nepal516.
The target in the next assay is HLA-B*15:42. The description is as above. As to conditions: source organism: Yersinia pestis Nepal516.
In another assay the target is HLA-A*26:03. Kind of assay: IEDB peptide-MHC binding, purified MHC/direct/fluorescence; filed as Kd, often an IC50 or EC50 that approximates it; ≥ and ≤ were set here for values at or beyond the usual limits of such assays. As to conditions: source organism: Fowlpox virus.
A further assay concerns the target HLA-B*46:01. Kind of assay: IEDB peptide-MHC binding, purified MHC/competitive/fluorescence; filed as Kd, often an IC50 or EC50 that approximates it; ≥ and ≤ were set here for values at or beyond the usual limits of such assays. Conditions: source organism: Vibrio parahaemolyticus AQ3810.
The next assay concerns the target HLA-A*02:12. Described as above. As to conditions: source organism: Vibrio parahaemolyticus AQ3810.
For a further assay, the target named is HLA-A*02:19. The description is as above. As to conditions: source organism: Vibrio parahaemolyticus AQ3810.
Assay [14] concerns the target HLA-A*69:01. Described as above. Conditions: source organism: Vibrio parahaemolyticus AQ3810.
The target in the next assay is HLA-A*02:16. The description is as above. As to conditions: source organism: Vibrio parahaemolyticus AQ3810.
The target of a further assay is HLA-A*24:03. The description is as above. As to conditions: source organism: Vibrio parahaemolyticus AQ3810.
The target of another assay is HLA-B*57:01. The assay is described as above. Conditions: source organism: Vibrio parahaemolyticus AQ3810.
The target in the next assay is HLA-B*18:01. Described as above. As to conditions: source organism: Vibrio parahaemolyticus AQ3810.
For assay [15], the target named is HLA-A*26:01. The assay is described as above. Conditions: source organism: Vibrio parahaemolyticus AQ3810.
The target in a further assay is HLA-B*51:01. The description is as above. Conditions: source organism: Vibrio parahaemolyticus AQ3810.
The next assay concerns the target HLA-B*39:01. Described as above. Conditions: source organism: Vibrio parahaemolyticus AQ3810.
The next assay deals with HLA-B*27:03. Described as above. Conditions: source organism: Vibrio parahaemolyticus AQ3810.
Assay [16] concerns the target HLA-A*02:01. The description is as above. Conditions: source organism: Vibrio parahaemolyticus AQ3810.
The target of a further assay is HLA-A*02:03. Described as above. Conditions: source organism: Vibrio parahaemolyticus AQ3810.
A further assay has as its target HLA-B*15:17. Described as above. As to conditions: source organism: Vibrio parahaemolyticus AQ3810.
The target in a further assay is HLA-A*31:01. The assay is described as above. Conditions: source organism: Vibrio parahaemolyticus AQ3810.
Another assay has as its target HLA-A*02:11. The assay is described as above. As to conditions: source organism: Vibrio parahaemolyticus AQ3810.
For a further assay, the target named is HLA-A*68:02. The description is as above. As to conditions: source organism: Vibrio parahaemolyticus AQ3810.
Where [17] appears, read: source organism: Giardia lamblia ATCC 50803.

Turning to YLEGHGFRF, the IC50 with HLA-A*01:01 [1] is not below 76.3 µM; with HLA-A*24:02 [2] it was 0.18 µM; in the assay with HLA-B*15:01 [3], 17.6 µM; with HLA-A*02:01 [4], 0.403 µM.

YSKIRGAAL: the dissociation constant (Kd) with HLA-B*08:01 (setting [17]) turned out to be 0.027 µM; with HLA-B*08:02 (setting [17]), 0.445 µM.

On to KCRLRMDKL, for which the Kd with HLA-B*08:02 (source organism: Dengue virus 2 Thailand/16681/84) was not below 20 µM.

Regarding ASRGLWDSF, the Kd with HLA-A*01:01 [5], with HLA-B*08:01 (source organism: Influenza A virus (A/Duck/Shantou/2134/00(H9N2))), with HLA-A*11:01, with HLA-A*24:02 [6], with HLA-A*69:01 [7] and in the assay with HLA-B*08:02 (source organism: Influenza A virus (A/Taiwan/2/2006(H1N1))) was not below 20 µM throughout. The Kd with HLA-B*15:01 [8] was 0.891 µM; with HLA-B*58:01 it was not below 5 µM; with HLA-A*26:01 [9] it was not below 20 µM; with HLA-A*02:01 [10], not below 20 µM; with HLA-A*03:01 it was not below 20 µM; in the assay with HLA-B*07:02, not below 20 µM. For the same sequence, the Kd in the assay with HLA-B*27:05, in the assay with HLA-B*40:01 [11] and with HLA-B*44:02 was not below 20 µM in each case.

Regarding HKEGAFFLY, the values for the IC50 in the assay with HLA-A*01:01 [1] and with HLA-A*24:02 [2] were not below 136 µM and not below 149 µM, respectively.

On to VEMQLAVVI, for which the Kd is not below 5 µM with HLA-B*45:06; not below 20 µM with HLA-B*15:01 [12] (source organism: Yersinia pestis Nepal516); not below 5 µM with HLA-C*04:01; not below 5 µM in the assay with HLA-B*83:01; 0.0079 µM with HLA-B*40:01 [13]; not below 5 µM in the assay with HLA-B*15:42.

For HVFVCGNNM, in the assay with HLA-A*26:03, the Kd was 0.076 µM. In other words, the double-digit nanomolar range.

Turning to HFIYHKREK, the Kd in the assay with HLA-B*46:01, with HLA-A*02:12, with HLA-A*02:19, with HLA-A*69:01 [14], with HLA-A*02:16 and with HLA-A*24:03 was not below 20 µM in each case. In addition, the Kd with HLA-B*15:01 [12] (source organism: Vibrio parahaemolyticus AQ3810), in the assay with HLA-B*57:01, in the assay with HLA-B*18:01, with HLA-A*26:01 [15], with HLA-B*51:01 and in the assay with HLA-B*39:01 was not below 20 µM each time. The Kd was not below 20 µM in the assay with HLA-B*27:03; not below 20 µM in the assay with HLA-A*02:01 [16]; not below 20 µM with HLA-A*02:03; not below 20 µM with HLA-B*15:17; 0.0188 µM with HLA-A*31:01; not below 20 µM with HLA-A*02:11. The sequence also showed a Kd with HLA-A*68:02 not below 20 µM.
